Measurements as given in patent US20200317768A1 (published 2020).
Positions count from the first letter of the chain named.

What was measured:
[1] = biological target: T1, human FcγRIIb extracellular domain, His-tagged (human, UniProt P31994 43-217); test: SPR; KD of SG1 / KD of variant;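 note: relative to parent M103205H795-SG1 carrying the SG1 human heavy chain constant region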
T1 construct: also called FcgRIIb (human)
T1 sequence: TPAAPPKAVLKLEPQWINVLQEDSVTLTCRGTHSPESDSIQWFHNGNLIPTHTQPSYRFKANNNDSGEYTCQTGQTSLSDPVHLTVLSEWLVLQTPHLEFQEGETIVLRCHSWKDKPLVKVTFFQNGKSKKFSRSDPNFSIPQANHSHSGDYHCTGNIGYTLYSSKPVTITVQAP

[2] = biological target: T2, human FcγRIIaH extracellular domain, His-tagged (human, UniProt P12318 34-217); test: SPR; KD of SG1 / KD of variant;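 note: relative to parent M103205H795-SG1 carrying the SG1 human heavy chain constant region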
T2 construct: also called human FcγRIIa (type H); FcgRIIaH
T2 sequence: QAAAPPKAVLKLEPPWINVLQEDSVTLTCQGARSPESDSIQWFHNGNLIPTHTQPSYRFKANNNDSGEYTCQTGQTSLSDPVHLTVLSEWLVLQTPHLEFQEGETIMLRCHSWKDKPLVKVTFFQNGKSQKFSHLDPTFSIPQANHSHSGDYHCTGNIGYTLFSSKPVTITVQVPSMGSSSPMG

[3] = biological target: T3, cynomolgus monkey FcγRIIa1 extracellular domain, His-tagged (cynomolgus monkey); test: SPR; KD of SG1 / KD of variant;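 note: relative to parent M103205H795-SG1 carrying the SG1 human heavy chain constant region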
T3 construct: also called cyno FcγRIIa1; cynoFcgRIIa1
T3 chain: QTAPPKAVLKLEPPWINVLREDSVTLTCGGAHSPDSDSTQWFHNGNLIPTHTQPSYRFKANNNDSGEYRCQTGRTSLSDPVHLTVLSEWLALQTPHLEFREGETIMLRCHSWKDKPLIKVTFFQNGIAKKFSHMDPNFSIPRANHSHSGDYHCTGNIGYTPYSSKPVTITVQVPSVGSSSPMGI

[4] = biological target: T4, cynomolgus monkey FcγRIIIaS extracellular domain, His-tagged (cynomolgus monkey, UniProt Q8SPW2 21-206 at identity 1.00)); test: SPR; KD of SG1 / KD of variant;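 note: relative to parent M103205H795-SG1 carrying the SG1 human heavy chain constant region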
T4 construct: also called cyno FcγRIIIaS; cynoFcγRIIIaS
T4 chain: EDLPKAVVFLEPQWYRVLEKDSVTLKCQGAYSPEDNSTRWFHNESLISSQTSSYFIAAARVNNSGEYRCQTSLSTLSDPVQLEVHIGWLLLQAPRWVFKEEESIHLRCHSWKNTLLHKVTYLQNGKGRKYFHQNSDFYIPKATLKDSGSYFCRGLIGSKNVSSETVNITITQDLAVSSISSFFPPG

[5] = biological target: T5, human FcγRIIIaV extracellular domain, His-tagged (human, UniProt P08637 17-208); test: SPR; KD of SG1 / KD of variant
T5 construct: also called FcgRIIIaV
T5 sequence (P08637 17-208 F176V): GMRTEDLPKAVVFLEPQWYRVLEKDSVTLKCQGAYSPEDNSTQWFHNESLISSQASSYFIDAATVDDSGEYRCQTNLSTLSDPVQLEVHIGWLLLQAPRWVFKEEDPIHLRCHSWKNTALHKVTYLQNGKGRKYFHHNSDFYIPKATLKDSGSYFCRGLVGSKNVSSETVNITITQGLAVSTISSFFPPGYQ

[6] = biological target: T6, cynomolgus monkey FcγRIIa2 extracellular domain, His-tagged (cynomolgus monkey); test: SPR; KD of SG1 / KD of variant
T6 construct: also called cyno FcγRIIa2; cynoFcgRIIa2
T6 chain: T3 chain with P95T, T121A, I127K, A128S, K130N, D135N, R142Q

[7] = biological target: T7, cynomolgus monkey FcγRIIb extracellular domain, His-tagged (cynomolgus monkey); test: SPR; KD of SG1 / KD of variant
T7 construct: also called cyno FcγRIIb; cynoFcγRIIb
T7 chain: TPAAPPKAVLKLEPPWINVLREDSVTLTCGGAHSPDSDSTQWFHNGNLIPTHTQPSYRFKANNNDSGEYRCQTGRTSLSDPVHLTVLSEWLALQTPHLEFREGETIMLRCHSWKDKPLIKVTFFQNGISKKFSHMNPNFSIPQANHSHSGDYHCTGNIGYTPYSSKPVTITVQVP

[8] = biological target: T8, cynomolgus monkey FcγRIIa3 extracellular domain, His-tagged (cynomolgus monkey); test: SPR; KD of SG1 / KD of variant
T8 construct: also called cyno FcγRIIa3; cynoFcgRIIa3
T8 chain: T3 chain with P95T, T121A, A128S, H133P, D135N

[9] = biological target: T1, human FcγRIIb extracellular domain, …; test: SPR, antibody captured, FcgR analyte
Protocol: (§1) The kinetic analysis of interactions between these antibodies and FcγR was carried out using BIACORE® T200 or BIACORE® 4000 (GE Healthcare). HBS-EP+ (GE Healthcare) was used as the running buffer, and the measurement temperature was set to 25° C. A chip produced by immobilizing Protein A. Protein A/G or mouse anti-human IgG kappa light chain (BD Biosciences) onto a Series S Sensor Chip CM4 or CM5 (GE Healthcare) by the amine-coupling method was used. […] After the measurement, the antibody captured on the chip was washed off by allowing reaction with 10 mM glycine-HCl, pH1.5 and 25 mM NaOH so that the chip was regenerated and used repeatedly. The sensorgrams obtained as measurement results were analyzed by the 1:1 Langmuir binding model using the BIACORE® Evaluation Software to calculate the binding rate constant ka (L/mol/s) and dissociation rate constant kd (l/s), and the dissociation constant KD (mol/L) was calculated from these values. […] Regarding such interactions, KD values were calculated using the following 1:1 binding model described in BIACORE® T100 Software Handbook BR1006-48 Edition AE.
(§2) The behavior of interacting molecules according to the 1:1 binding model on BIACORE® can be described by Equation 1: Req=C·R max/(KD+C)+RI, wherein, Req is a plot of steady-state binding levels to analyte concentration. C is concentration, RI is bulk refractive index contribution in the sample, and Rmax is analyte binding capacity of the surface. When this equation is rearranged, KD can be expressed as Equation 2: KD=C·Rmax/(Req−RI)−C. KD can be calculated by substituting the values of Rmax, RI, and C into Equation 1 or Equation 2. From the current measurement conditions, RI=0, C=2 μmol/L can be used.

[10] = biological target: T2, human FcγRIIaH extracellular domain, …; test: SPR, antibody captured, FcgR analyte
Protocol: as §1, §2

[11] = biological target: T3, cynomolgus monkey FcγRIIa1 …; test: SPR, antibody captured, FcgR analyte
Protocol: as §1, §2

[12] = biological target: T9, human FcγRIIaR extracellular domain, His-tagged (human, UniProt P12318 34-217); test: SPR, antibody captured, FcgR analyte
T9 construct: also called human FcγRIIa (type R); FcgRIIaR
T9 chain: T2 sequence with H134R
Protocol: as §1, §2

[13] = biological target: T4, cynomolgus monkey FcγRIIIaS …; test: SPR, antibody captured, FcgR analyte
Protocol: as §1, §2

[14] = biological target: T5, human FcγRIIIaV extracellular domain, …; test: SPR, antibody captured, FcgR analyte
Protocol: as §1, §2

[15] = biological target: T6, cynomolgus monkey FcγRIIa2 …; test: SPR, antibody captured, FcgR analyte
Protocol: as §1, §2

[16] = biological target: T7, cynomolgus monkey FcγRIIb extracellular …; test: SPR, antibody captured, FcgR analyte
Protocol: as §1, §2

[17] = biological target: T8, cynomolgus monkey FcγRIIa3 …; test: SPR, antibody captured, FcgR analyte
Protocol: as §1, §2

B1: M103205H795-MY012/M103202L889-SK1 (antibody, human IgG1, kappa)
heavy: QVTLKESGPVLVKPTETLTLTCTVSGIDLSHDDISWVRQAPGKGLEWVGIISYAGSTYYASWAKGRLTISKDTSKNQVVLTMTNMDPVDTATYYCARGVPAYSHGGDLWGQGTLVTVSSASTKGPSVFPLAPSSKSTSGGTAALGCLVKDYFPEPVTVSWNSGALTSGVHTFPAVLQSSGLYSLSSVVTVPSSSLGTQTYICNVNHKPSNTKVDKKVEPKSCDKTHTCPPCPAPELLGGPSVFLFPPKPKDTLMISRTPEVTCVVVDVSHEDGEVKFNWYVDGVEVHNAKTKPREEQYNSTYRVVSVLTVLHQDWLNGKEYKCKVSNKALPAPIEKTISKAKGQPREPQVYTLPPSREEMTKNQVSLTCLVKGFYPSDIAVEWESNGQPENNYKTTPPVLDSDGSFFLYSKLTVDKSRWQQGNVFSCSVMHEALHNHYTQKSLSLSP
light: DIVMTQSPATLSLSPGERATLSCTSSQSVYHANWLSWFQQKPGQPPKLLIYWASTLAYGVPSRFSGSGSGTDFTLTISSLQPEDAATYYCAGGYGGGRYAFGQGTKVEIKRTVAAPSVFIFPPSDEQLKSGTASVVCLLNNFYPREAKVQWKVDNALQSGNSQESVTEQDSKDSTYSLSSTLTLSKADYEKHKVYACEVTHQGLSSPVTKSFNRGEC
notes: Put into M103205H795-SG1
**Q.** What does the source list for B1?
**A.** KD fold (SG1 = 1) [1]: 5.3 fold; KD fold (SG1 = 1) [2]: 1.6 fold; KD fold (SG1 = 1) [3]: 1.5 fold; KD fold (SG1 = 1) [4]: 1.8 fold; KD fold (SG1 = 1) [5]: 1.69 fold; KD fold (SG1 = 1) [6]: 2.2 fold; KD fold (SG1 = 1) [7]: 1.6 fold; KD fold (SG1 = 1) [8]: 2.2 fold; Kd [9]: 900 nM; Kd [10]: 440 nM; Kd [11]: 2100 nM; Kd [12]: 230 nM; Kd [13]: 200 nM; Kd [14]: 480 nM; Kd [15]: 2300 nM; Kd [16]: 1100 nM; Kd [17]: 7900 nM

B2: M103205H795-MY066/M103202L889-SK1 (antibody, human IgG1, kappa)
heavy: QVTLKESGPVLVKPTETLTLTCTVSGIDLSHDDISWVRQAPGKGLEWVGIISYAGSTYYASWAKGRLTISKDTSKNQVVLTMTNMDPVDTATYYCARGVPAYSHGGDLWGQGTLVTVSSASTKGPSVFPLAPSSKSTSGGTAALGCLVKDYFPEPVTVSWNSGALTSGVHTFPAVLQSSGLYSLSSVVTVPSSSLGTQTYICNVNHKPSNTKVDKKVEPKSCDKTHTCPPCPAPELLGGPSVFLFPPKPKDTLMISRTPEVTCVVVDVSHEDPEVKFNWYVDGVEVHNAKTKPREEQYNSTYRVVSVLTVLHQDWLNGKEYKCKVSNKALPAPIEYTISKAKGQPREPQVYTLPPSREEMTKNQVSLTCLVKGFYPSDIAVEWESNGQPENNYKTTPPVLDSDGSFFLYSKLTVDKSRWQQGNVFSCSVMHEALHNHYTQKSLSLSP
light: B1 light
notes: Substitution put into M103205H795-SG1
**Q.** How did the Kd [9] turn out when B2 was run?
**A.** 2800 nM

**Q.** And the Kd [10]?
**A.** 640 nM

**Q.** What about the Kd [11] of the same binder?
**A.** 2100 nM

**Q.** And the Kd [12]?
**A.** 970 nM

**Q.** And the Kd [13]?
**A.** 160 nM

**Q.** What about the Kd [14] of the same binder?
**A.** 290 nM

**Q.** What about the Kd [15] of the same binder?
**A.** 2800 nM

**Q.** And the Kd [16]?
**A.** 1400 nM

**Q.** What about the Kd [17] of the same binder?
**A.** 5700 nM

B3: M103205H795-MY017/M103202L889-SK1 (antibody, human IgG1, kappa)
heavy: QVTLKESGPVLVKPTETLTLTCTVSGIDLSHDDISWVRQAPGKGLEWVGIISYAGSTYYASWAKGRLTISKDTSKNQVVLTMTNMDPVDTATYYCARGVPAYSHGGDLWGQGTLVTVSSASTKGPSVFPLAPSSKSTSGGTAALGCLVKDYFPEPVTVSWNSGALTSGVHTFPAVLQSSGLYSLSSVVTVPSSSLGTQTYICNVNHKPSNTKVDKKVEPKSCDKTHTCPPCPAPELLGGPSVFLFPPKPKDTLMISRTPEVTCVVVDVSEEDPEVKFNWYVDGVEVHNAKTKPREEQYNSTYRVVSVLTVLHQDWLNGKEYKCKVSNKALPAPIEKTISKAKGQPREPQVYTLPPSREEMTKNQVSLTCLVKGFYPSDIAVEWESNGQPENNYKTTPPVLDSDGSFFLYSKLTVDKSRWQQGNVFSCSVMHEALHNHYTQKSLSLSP
light: B1 light
notes: as for B2
**Q.** What does the source list for B3?
**A.** KD fold (SG1 = 1) [1]: 4.9 fold; KD fold (SG1 = 1) [2]: 1.5 fold; KD fold (SG1 = 1) [3]: 1.2 fold; KD fold (SG1 = 1) [4]: 3.67 fold; KD fold (SG1 = 1) [5]: 5.79 fold; KD fold (SG1 = 1) [6]: 1.8 fold; KD fold (SG1 = 1) [7]: 2.6 fold; KD fold (SG1 = 1) [8]: 3.2 fold; Kd [9]: 940 nM; Kd [10]: 450 nM; Kd [11]: 2700 nM; Kd [12]: 280 nM; Kd [13]: 98 nM; Kd [14]: 140 nM; Kd [15]: 2900 nM; Kd [16]: 580 nM; Kd [17]: 5500 nM

B4: M103205H795-MY015/M103202L889-SK1 (antibody, human IgG1, kappa)
heavy: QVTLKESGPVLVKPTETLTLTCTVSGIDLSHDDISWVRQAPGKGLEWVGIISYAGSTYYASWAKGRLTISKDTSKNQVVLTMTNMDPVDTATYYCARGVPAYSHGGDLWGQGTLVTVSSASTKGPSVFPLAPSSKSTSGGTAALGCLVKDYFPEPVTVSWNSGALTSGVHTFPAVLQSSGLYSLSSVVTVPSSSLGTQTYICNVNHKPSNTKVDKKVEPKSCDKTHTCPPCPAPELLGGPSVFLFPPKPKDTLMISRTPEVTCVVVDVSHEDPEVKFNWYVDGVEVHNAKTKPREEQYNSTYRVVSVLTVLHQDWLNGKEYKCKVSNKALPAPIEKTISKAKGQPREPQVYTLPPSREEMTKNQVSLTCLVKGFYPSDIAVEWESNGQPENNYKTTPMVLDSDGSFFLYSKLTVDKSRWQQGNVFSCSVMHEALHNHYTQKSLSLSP
light: B1 light
notes: as for B2
**Q.** For B4, which Kd [9] is on record?
**A.** 1600 nM

**Q.** And the Kd [10]?
**A.** 330 nM

**Q.** What about the Kd [11] of the same binder?
**A.** 1300 nM

**Q.** And the Kd [12]?
**A.** 320 nM

**Q.** What about the Kd [13] of the same binder?
**A.** 100 nM

**Q.** And the Kd [14]?
**A.** 240 nM

**Q.** And the Kd [15]?
**A.** 1500 nM

**Q.** What about the Kd [17] of the same binder?
**A.** 4700 nM

B5: M103205H795-MY067/M103202L889-SK1 (antibody, human IgG1, kappa)
heavy: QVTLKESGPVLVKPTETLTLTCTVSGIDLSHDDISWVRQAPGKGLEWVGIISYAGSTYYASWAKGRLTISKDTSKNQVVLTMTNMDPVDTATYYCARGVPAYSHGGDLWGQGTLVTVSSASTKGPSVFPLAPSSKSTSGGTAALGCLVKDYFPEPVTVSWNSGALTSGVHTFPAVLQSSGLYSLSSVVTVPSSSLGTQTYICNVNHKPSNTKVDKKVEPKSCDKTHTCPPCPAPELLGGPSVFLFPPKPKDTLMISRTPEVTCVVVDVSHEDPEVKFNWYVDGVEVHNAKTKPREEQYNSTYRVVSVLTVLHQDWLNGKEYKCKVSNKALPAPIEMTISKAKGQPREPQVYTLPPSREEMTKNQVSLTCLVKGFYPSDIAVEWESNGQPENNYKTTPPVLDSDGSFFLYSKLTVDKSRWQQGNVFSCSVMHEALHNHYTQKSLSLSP
light: B1 light
notes: as for B2
**Q.** With B5 as the binder, how does the Kd [9] read?
**A.** 2800 nM

**Q.** And the Kd [10]?
**A.** 530 nM

**Q.** What about the Kd [11] of the same binder?
**A.** 2100 nM

**Q.** What about the Kd [12] of the same binder?
**A.** 760 nM

**Q.** What about the Kd [13] of the same binder?
**A.** 100 nM

**Q.** What about the Kd [14] of the same binder?
**A.** 200 nM

**Q.** What about the Kd [15] of the same binder?
**A.** 2300 nM

**Q.** What about the Kd [16] of the same binder?
**A.** 1100 nM

**Q.** What about the Kd [17] of the same binder?
**A.** 6700 nM

B6: M103205H795-MY061/M103202L889-SK1 (antibody, human IgG1, kappa)
heavy: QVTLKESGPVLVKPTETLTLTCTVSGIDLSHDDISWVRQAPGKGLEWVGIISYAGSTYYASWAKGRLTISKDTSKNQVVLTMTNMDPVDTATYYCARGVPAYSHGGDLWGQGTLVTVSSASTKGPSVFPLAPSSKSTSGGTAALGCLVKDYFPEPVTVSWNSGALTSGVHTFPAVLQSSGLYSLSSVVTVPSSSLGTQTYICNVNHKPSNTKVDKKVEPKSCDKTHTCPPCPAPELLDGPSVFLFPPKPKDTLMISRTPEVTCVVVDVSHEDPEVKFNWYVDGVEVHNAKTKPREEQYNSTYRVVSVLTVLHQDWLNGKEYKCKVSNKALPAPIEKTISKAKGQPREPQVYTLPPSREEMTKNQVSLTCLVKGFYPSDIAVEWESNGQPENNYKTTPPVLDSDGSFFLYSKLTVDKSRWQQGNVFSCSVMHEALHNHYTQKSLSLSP
light: B1 light
notes: as for B2
**Q.** With B6 as the binder, how does the “KD fold (SG1 = 1)” value [1] read?
**A.** 1.8 fold

**Q.** And the “KD fold (SG1 = 1)” value [2]?
**A.** 0.5 fold

**Q.** What about the “KD fold (SG1 = 1)” value [3] of the same binder?
**A.** 0.5 fold

**Q.** What about the “KD fold (SG1 = 1)” value [4] of the same binder?
**A.** 0.11 fold

**Q.** And the “KD fold (SG1 = 1)” value [5]?
**A.** 0.27 fold

**Q.** And the “KD fold (SG1 = 1)” value [6]?
**A.** 0.8 fold

**Q.** And the “KD fold (SG1 = 1)” value [7]?
**A.** 0.6 fold

**Q.** And the “KD fold (SG1 = 1)” value [8]?
**A.** 0.5 fold

**Q.** What about the Kd [9] of the same binder?
**A.** 2500 nM

**Q.** And the Kd [10]?
**A.** 1400 nM

**Q.** And the Kd [11]?
**A.** 6500 nM

**Q.** And the Kd [12]?
**A.** 1300 nM

**Q.** And the Kd [13]?
**A.** 3400 nM

**Q.** And the Kd [14]?
**A.** 3000 nM

**Q.** And the Kd [16]?
**A.** 4200 nM

**Q.** What about the Kd [17] of the same binder?
**A.** 18000 nM
